Assays:
[1] = target: the molecule itself; assay: crystal structure; apo Bd0055; hanging drop, 3.2 M (NH4)2SO4, 100 mM BICINE pH 9; 1.8 Å
Bd0055 = target: T1, Bd0055 (Bdellovibrio bacteriovorus HD100, UniProt Q6MRM1 1-64); assay: X-ray crystallography; 10 mM NaCl, 0.1 mM EDTA, 50 mM HEPES pH 7.5; 16:1 protein to DNA; 1 dimer per 2.5 bp; FP/FRET: 10 nM DNA, 10 mM NaCl, 1 mM EDTA, 50 mM HEPES pH 6, RT; EMSA: 1 uM DNA, 10 mM NaCl, 1 mM EDTA, 50 mM HEPES pH 7.5, RT; details: protein: recombinant; chain copies: 2; blunt
T1 sequence: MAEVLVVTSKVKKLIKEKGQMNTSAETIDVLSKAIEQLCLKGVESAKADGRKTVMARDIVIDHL

B1: Bd0055, Bdellovibrio bacteriovorus histone (natural protein, Bdellovibrio bacteriovorus HD100, UniProt Q6MRM1 1-64, looked up)
chain: T1 sequence
notes: Bd0055, singlet histone fold protein of Bdellovibrio bacteriovorus HD100; the ORF was expressed; No tag is mentioned; purified by ion exchange, heparin and size exclusion; also called wildtype Bd0055; B. bacteriovorus histone; source: E. coli, codon-optimized ORF in a pET vector, purified (SP HP, Heparin HP, S75)
Question: B1 was tested. Which “stoichiometry N” value [1] did it give?
Answer: 2

B2: 35 bp DNA (dsDNA)
DNA 1: TCTTGCACTAAGAGCTACTGGAGTGCGTCAGATGT
DNA 2: ACATCTGACGCACTCCAGTAGCTCTTAGTGCAAGA
Question: Does B2 bind (Bd0055)?
Answer: binds
